Data from patent publication US20230183364A1 (ELICERA THERAPEUTICS, published 2023).

T1: Human IL13Rα2 Fc chimera (hIL13Rα2-Fc, RnD Systems #7147-IR) (human, UniProt Q14627 22-342)
T1 construct: Bought; produced in CHO cells; homodimer through Fc fusion; also called hILRα2-Fc; Human ILRα2-Fc; not shown: Fc part (and any linker) of the bought chimera
T1 sequence: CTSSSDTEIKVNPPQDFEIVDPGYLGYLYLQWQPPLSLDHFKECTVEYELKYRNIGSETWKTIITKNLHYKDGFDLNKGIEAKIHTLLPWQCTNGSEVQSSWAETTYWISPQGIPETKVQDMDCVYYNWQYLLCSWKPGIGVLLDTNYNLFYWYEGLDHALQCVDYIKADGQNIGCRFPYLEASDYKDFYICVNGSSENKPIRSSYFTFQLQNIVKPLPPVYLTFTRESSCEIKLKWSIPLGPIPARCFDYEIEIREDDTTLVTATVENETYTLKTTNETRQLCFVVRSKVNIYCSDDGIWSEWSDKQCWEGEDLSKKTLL

T2: Biotinylated human IL13Rα2 (hIL13Rα2-avi) (human, UniProt Q14627 29-331, biotinylated in vivo on the Avi-tag by co-expressed BirA)
T2 construct: Produced in Sf9 cells; native signal peptide (aa 1-28) exchanged for the gp67 signal peptide; 42.2 kDa; also called human IL13Rα2-avi; Human ILRα2-avi
T2 sequence: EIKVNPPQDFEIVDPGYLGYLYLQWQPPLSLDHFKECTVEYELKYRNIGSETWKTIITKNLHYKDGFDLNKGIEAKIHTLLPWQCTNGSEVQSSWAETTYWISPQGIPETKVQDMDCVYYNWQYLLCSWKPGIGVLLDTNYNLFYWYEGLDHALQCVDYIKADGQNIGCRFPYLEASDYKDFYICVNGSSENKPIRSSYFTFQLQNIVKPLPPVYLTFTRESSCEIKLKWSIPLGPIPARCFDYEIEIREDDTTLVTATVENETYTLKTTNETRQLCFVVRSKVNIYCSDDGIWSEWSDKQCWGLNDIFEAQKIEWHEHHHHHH

T3: Human IL13Rα1-Fc (hIL13Rα1-Fc, RnD Systems #146-IR) (human, UniProt P78552 27-342)
T3 construct: Bought; Fc part of the bought chimera not given
T3 sequence (looked up): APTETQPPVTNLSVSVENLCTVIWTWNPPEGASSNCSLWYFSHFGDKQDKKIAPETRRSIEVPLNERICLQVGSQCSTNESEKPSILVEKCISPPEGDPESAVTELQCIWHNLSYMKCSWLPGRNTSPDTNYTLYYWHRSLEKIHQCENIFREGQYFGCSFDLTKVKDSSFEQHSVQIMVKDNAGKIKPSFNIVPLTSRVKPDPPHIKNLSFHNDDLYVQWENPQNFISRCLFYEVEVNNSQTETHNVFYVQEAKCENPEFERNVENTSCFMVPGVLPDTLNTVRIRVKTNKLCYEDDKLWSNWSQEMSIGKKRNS

T4: Mouse IL13Rα2 Fc chimera (mIL13Rα2-Fc, RnD Systems #539-IR) (mouse, UniProt O88786 22-334)
T4 construct: range 22-334; Bought; produced in NS0 cells; homodimer through Fc fusion; also called mILRα2-Fc; Mouse ILRα2-Fc; Fc part of the bought chimera not given
T4 sequence (looked up): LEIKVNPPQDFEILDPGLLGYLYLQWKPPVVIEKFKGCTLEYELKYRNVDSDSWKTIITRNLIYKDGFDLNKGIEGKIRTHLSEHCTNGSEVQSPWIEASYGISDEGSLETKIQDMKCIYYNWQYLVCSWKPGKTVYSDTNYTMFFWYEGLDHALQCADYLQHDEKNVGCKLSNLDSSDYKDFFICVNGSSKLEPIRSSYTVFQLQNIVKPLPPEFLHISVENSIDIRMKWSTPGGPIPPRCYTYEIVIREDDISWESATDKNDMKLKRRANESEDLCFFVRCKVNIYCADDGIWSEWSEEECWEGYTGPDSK


How the values were obtained:
[1] = biological target: T1, Human IL13Rα2 Fc chimera (hIL13Rα2-Fc, …); assay: SPR single cycle kinetics, scFv captured
Excerpt: (§1) An anti-FLAG M2 antibody (Sigma-Aldrich #F1804), functioning as a capture ligand was immobilized onto all four surfaces of a CM5-S amine sensor chip on a BIACORE® T200 instrument (GE Healthcare) according to manufacturer's recommendations.

[2] = biological target: T2, Biotinylated human IL13Rα2 …; assay: SPR single cycle kinetics, scFv captured
Excerpt: as §1

streptavidin [3] = biological target: T5, streptavidin (UniProt P22629 37-163, limits assumed); assay: ELISA on coated streptavidin, scFv in bacterial supernatant, anti-FLAG-HRP
T5 construct: Negative control antigen; cognate antigen of G-strep-1 scFv; also called negative control protein streptavidin
T5 sequence (P22629 37-163 limits assumed): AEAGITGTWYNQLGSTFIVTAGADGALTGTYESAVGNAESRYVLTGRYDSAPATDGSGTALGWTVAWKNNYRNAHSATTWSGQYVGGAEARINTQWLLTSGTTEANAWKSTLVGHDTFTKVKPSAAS
Description: (§2) Human IL13Rα2-avi (see Example A1), and negative control protein streptavidin were coated into a 384-ELISA well plate at 1 μg/ml in PBS at 4° C. overnight.
(§3) Plates were washed twice with MilliQ water and blocked for 2 h in blocking buffer (phosphate-buffered saline (PBS) supplemented with 0.5% bovine serum albumin (BSA)+0.05% TWEEN 20®). Triple-FLAG-tagged scFv 1E10B9 and mAb47, present in bacterial supernatant, were diluted 1:2, 1:20 and 1:200 in blocking buffer and allowed to bind. An assay control scFv (G-strep-1), specific for streptavidin, was also included. Detection of binding was enabled through an HRP-conjugated anti-FLAG M2 antibody (Sigma-Aldrich #A8592) followed by incubation with 1-step Ultra TMB ELISA substrate (ThermoFisher Scientific #34029). The colorimetric signal development was stopped by adding 1 M sulfuric acid and plates were read at 450 nm. All samples were assayed in duplicates.

[4] = biological target: T2, Biotinylated human IL13Rα2 …; assay: ELISA on coated human IL13Ra2, scFv in bacterial supernatant, anti-FLAG-HRP
Description: as §2, §3

[5] = biological target: T3, Human IL13Rα1-Fc (hIL13Rα1-Fc, RnD …); assay: ELISA, coated hIL13Ra1-Fc, anti-FLAG-HRP
Description: Coating proteins hIL13Rα2-avi (Example A1), hIL13Rα2-Fc (RnD Systems #7147-IR), mIL13Rα2-Fc (RnD Systems #539-IR) and hIL13Rα1-Fc (RnD Systems #146-IR) were diluted to 1 μg/ml in PBS and directly coated into a 384-well ELISA plate. Two negative control proteins, streptavidin and a non-relevant protein, were also coated. Following incubation of plates with coating-proteins overnight at 4° C., plates were washed twice with MilliQ water and blocked for 2 h in blocking buffer (PBS supplemented with 0.5% BSA+0.05% TWEEN 20®). Triple-FLAG-tagged W-ME107 scFv clones present in bacterial supernatant were diluted 1:10 in blocking buffer and allowed to bind. Detection of binding was enabled through an HRP-conjugated anti-FLAG M2 antibody (Sigma-Aldrich #A8592) followed by incubation with 1-step Ultra TMB ELISA substrate (ThermoFisher Scientific #34029). The colorimetric-signal development was stopped by addition of 1 M sulfuric acid and plates were analyzed at […].

[6] = biological target: T4, Mouse IL13Rα2 Fc chimera (mIL13Rα2-Fc, …); assay: SPR single cycle kinetics, scFv captured
Excerpt: as §1

streptavidin [7] = biological target: T5, streptavidin; assay: SPR: scFv captured on anti-FLAG M2, streptavidin injected
Description: An anti-FLAG M2 antibody (Sigma-Aldrich #F1804), functioning as a capture ligand, was immobilized onto all four surfaces of a CM5-S amine sensor chip through ECD/NHS chemistry on a BIACORE® T200 instrument (GE Healthcare) according to manufacturer's recommendations.
The surfaces were regenerated with 10 mM glycin-HCl pH 2.1. All experiments were performed at 25° C. in HBS supplemented with 0.05% TWEEN 20®, pH 7.5.

| Binder | Kd [1] [nM] | koff [1] [s⁻¹] | kon [1] [M⁻¹ s⁻¹] | Kd [2] [nM] | koff [2] [s⁻¹] | kon [2] [M⁻¹ s⁻¹] | binding result (streptavidin [3]) | binding result [4] | binding result [5] | Kd [6] [nM] | koff [6] [s⁻¹] | kon [6] [M⁻¹ s⁻¹] | binding result (streptavidin [7]) |
| --- | --- | --- | --- | --- | --- | --- | --- | --- | --- | --- | --- | --- | --- |
| W-ME107-117 scFv (scFv, V domains shown) VH: EVQLLESGGGLVQPGGSLRLSCAASGFTFSGSYMSWVRQAPGKGLEWVSSIYGSGGYTYYADSVKGRFTISRDNSKNTLYLQMNSLRAEDTAVYYCARYSPFYMDYWGQGTLVTVSS VL: not shown | 7.8 | 0.00035 | 45000 | 22 | 0.0033 | 150000 |  |  |  |  |  |  |  |
| 1E10B9 scFv (scFv, also called X-ME107-B9) scFv: QIQLVQSGPELKKPGETVKIYCKASGYSFRDYSVHWVKQAPGKGLKWMGWINTETGEPTYVDEFKGRFAFFLEASANTVYLQISNLKNEDTATYFCDYRFTYWGQGTLVTVSAGGGGSGGGGSGGGGSEIVMTQTPLILSVTIGQPASISCKSSQSVLYSNGKTYLNWLLQRPGQSPKRLIYLVSKLDSGVPDRFTGSGSGTDFTLKISRVEAEDLGVYYCVQGSHFPYTFGGGTKLEIKAAADYKDHDGDYKDHDIDYKDDDDKAAAHHHHHH |  |  |  |  |  |  | no binding (tested: supernatant diluted 1:2) | no binding (tested: supernatant diluted 1:2) |  |  |  |  |  |
| W-ME107-75 scFv (scFv, V domains shown, Human scFv from SciLifeLib phage libraries) VH: EVQLLESGGGLVQPGGSLRLSCAASGFTFYSYGMSWVRQAPGKGLEWVSYISGGGSYTYYADSVKGRFTISRDNSKNTLYLQMNSLRAEDTAVYYCARGSYSHYGAHYLDYWGQGTLVTVSS VL: DIQMTQSPSSLSASVGDRVTITCRASQSISSYLNWYQQKPGKAPKLLIYAASSLQSGVPSRFSGSGSGTDFTLTISSLQPEDFATYYCQQALSSLPTFGQGTKLEIK | 5.4 | 0.00026 | 48000 | 36 | 0.0079 | 220000 |  |  | no binding (tested: supernatant diluted 1:10) | 80 | 0.0036 | 45000 | no binding (tested: 200 nM) |
| W-ME107-27 scFv (scFv, V domains shown, Human scFv from SciLifeLib phage libraries) VH: EVQLLESGGGLVQPGGSLRLSCAASGFTFYGSYMGWVRQAPGKGLEWVSYISGYGGYTYYADSVKGRFTISRDNSKNTLYLQMNSLRAEDTAVYYCARTPYSAYIDYWGQGTLVTVSS VL: not shown |  |  |  | 3.1 | 0.00022 | 69000 |  |  | no binding (tested: supernatant diluted 1:10) | 2.4 | 0.00019 | 80000 | no binding (tested: 200 nM) |
| W-ME107-10 scFv (scFv, V domains shown, Human scFv from SciLifeLib phage libraries) VH: not shown VL: DIQMTQSPSSLSASVGDRVTITCRASQSISSYLNWYQQKPGKAPKLLIYAASSLQSGVPSRFSGSGSGTDFTLTISSLQPEDFATYYCQQDYYLFTFGQGTKLEIK |  |  |  | 3.4 | 0.00017 | 51000 |  |  | no binding (tested: supernatant diluted 1:10) | 45 | 0.0018 | 40000 | no binding (tested: 200 nM) |
